The target in this assay is mTurquoise-Tub1p (S. cerevisiae) (UniProt P09733). Put plainly: FRET or BRET; sensitized emission FRET in living S. cerevisiae cells by confocal microscopy; mTurquoise donor, YFP acceptor; FRET index corrected for donor and acceptor bleed through and for the level of the donor (relative FRET index).
Chain of UniProt P09733 (P09733 whole entry): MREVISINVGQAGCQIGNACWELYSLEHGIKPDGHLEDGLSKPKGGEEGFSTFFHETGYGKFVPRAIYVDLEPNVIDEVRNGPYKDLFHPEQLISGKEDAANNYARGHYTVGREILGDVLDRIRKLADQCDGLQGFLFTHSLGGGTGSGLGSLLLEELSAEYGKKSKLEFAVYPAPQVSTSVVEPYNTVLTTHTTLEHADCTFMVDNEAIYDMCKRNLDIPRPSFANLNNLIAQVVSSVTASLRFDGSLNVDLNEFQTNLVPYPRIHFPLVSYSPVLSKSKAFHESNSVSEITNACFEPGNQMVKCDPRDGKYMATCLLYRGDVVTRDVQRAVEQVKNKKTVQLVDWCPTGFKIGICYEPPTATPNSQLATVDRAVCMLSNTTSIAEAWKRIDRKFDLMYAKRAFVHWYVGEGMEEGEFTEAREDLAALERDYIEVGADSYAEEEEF

With “YFP-VirE2 (from UniProt P0A3W8 1-533) (natural protein)”, the relative FRET index was 11.9.

These data come from article PMC3937733.
